Here are results for 5 molecules from US20230331835A1 (published 2023).

Assay [1] addresses BMECs. Kind of assay: cell binding, apparent equilibrium affinity; apparent Kd; 95% CI 19-36.
The target of assay [2] is BMECs. The assay is described as follows: cell binding, apparent equilibrium affinity; apparent Kd; 95% CI 128-179.
Assay [3] has as its target BMECs. The assay is described as follows: cell binding, apparent equilibrium affinity; apparent Kd; 95% CI 27-60.
The target of assay [4] is BMECs. The assay is described as follows: cell binding, apparent equilibrium affinity; apparent Kd; 95% CI 30-74.
Assay [5] addresses BMECs. The assay is described as follows: cell binding, apparent equilibrium affinity; apparent Kd; 95% CI 29-47.

B1: 17 (Fc fusion)
chain: QVQLLQSAGALVQPGGSLRLSCAASGFTFSSSTMHWVRQAPGKGLEWVAVVSYDGNTQYYADSVKGRFTISRDNSKNTLSLQMNNLRAEDTAVYYCAGLWGSLLGYFQHWGQGTLVTVSSGGGGSGGGGSGGGGSDIQMTQSPSFLSASVGDRVTITCRASQGVNNYLAWYQQKPGKAPKLLIYAASTLQSGVPSSFSGSGSGTEFTLTISSLQPEDFATYFCQQAHSFPPTFGGGTKLEIKR
Consider B1, for which, in assay [1], the Kd was 28 nM.

B2: 46.1 (Fc fusion)
chain: QVQLQESGGGLAQPGGSLRLSCAASGFTFSGYWMHWVRQAPGKGLVWVSRIKGDGTDIEYADSVKGRFTISRDNAKNTLYLQMNSLRAEDTAVYYCARDLRQTHWFDSWGQGTLVTVSSGGGGSGGGGSGGGGSQSALTQDPAVSVALGQTVRITCQGDSLRSYYASWYQQKPGQAPVLVMYGENSRPSGIPDRFSGSNSGNTASLIITGAQAEDEADYYCSSRDTSGNHVLFGGGTKLTVLG
As to B2, the Kd in assay [2] was found to be 153 nM.

B3: 9 (Fc fusion)
chain: QVQLVESGGGVTQPGLSLRLSCAASGFTFSSYAMSWVRQAPGKGLEWVSAISGSGGSTYYADSVKGRFTISRDNSKNTLYLQMNSLRAEDTAVYYCARGWKYFDYWGQGTLVTVSSSGGGSGGGGSGGGGSETTLTQSPSTLSASIGDRVAITCRASEGIYHWLAWYQQKPGKAPKLLIYKASSLASGAPSRFSGSGSGTDFTLTISSLQPDDFATYYCQQYHTISRTFGPGTKVEIKR
Regarding B3, in assay [3], the Kd is 44 nM.

B4: 3 (Fc fusion)
chain: QVQLQESGGGVVQPGRSLRLSCAASGFTFSSYAMHWVRQAPGKGLEWVAVISYDGSNKYYADSVKGRFTISRDNSKNTLYLQMNSLRAEDTAVYYCARDSKGQSVRNRFDPWGQGTLVTVSSGGGGSGGGGSGGGGSSELTQDPAVSVALGQTVRITCQGDNLRSYYASWYQQRPGQAPILVLYANTHRPSSIPDRFSGSSSGNTASLTITGAQAEDEADYYCNSRDSSGNLVVFGGGTKLTVLG
In the case of B4, in assay [4], the Kd came to 52 nM.

B5: 26 (Fc fusion)
chain: QVELVESGGGLVQPGGSLRLSCAASGFTFSTYWMNWVRQAPGKGLEWVAIINQDGTAEYYVDSVEGRFTISRDNAKNSLYLQMTSLRVEDTAVYYCATPTGDSDYWGQGTLVTVSSGGGGSGGGGSGGGGSSELTQDPAVSVALGQTVRITCQGDSLRSYYATWYQQKPGQAPVAVIYGQNNRPSGIPDRFSGSNSGNTASLTITAALAEDEADYYCHSRDSSGNHVLFGGGTKLTVLG
In the case of B5, the Kd in assay [5] turned out to be 38 nM.
